The values that follow come from publication PMC4709127, “Wuho Is a New Member in Maintaining Genome Stability through its Interaction with Flap Endonuclease 1”.

For one data set, the target named is T1, hWH (Wuho, WDR4) (Homo sapiens, UniProt P57081 1-412).
T1 sequence: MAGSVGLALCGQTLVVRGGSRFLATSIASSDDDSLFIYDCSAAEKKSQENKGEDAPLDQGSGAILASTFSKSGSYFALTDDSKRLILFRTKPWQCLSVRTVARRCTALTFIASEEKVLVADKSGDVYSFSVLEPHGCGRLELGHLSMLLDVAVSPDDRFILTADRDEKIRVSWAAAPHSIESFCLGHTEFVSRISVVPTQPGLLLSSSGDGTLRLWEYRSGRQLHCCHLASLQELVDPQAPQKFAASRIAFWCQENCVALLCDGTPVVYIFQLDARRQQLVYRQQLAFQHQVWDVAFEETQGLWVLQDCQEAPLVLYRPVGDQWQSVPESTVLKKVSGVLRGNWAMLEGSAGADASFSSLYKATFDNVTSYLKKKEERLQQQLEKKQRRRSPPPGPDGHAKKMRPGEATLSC
Kind of data set: EMSA; hWH 25-1000 nM, no significant affinity; 50 nM DNA, 50 mM Tris pH 8, 50 mM NaCl, 37 C, 10 min, 20 ul; TBE-PAGE. To be noted: protein: recombinant, tags: C-terminal His6 (pET23b), label: 5' fluorophore (FAM on oligo 1, or Cy5 on oligo 4).

A further data set deals with FEN1 (Homo sapiens, UniProt P39748 1-380). Kind of data set: EMSA; no Mg2+ in binding buffer; FEN1 25-1000 nM; 50 nM DNA, 50 mM Tris pH 8, 50 mM NaCl, 37 C, 10 min, 20 ul; TBE-PAGE. As to conditions: protein: recombinant, tags: C-terminal His6, label: 5' fluorophore (FAM on oligo 1, or Cy5 on oligo 4).
Chain of FEN1 (P39748 whole entry): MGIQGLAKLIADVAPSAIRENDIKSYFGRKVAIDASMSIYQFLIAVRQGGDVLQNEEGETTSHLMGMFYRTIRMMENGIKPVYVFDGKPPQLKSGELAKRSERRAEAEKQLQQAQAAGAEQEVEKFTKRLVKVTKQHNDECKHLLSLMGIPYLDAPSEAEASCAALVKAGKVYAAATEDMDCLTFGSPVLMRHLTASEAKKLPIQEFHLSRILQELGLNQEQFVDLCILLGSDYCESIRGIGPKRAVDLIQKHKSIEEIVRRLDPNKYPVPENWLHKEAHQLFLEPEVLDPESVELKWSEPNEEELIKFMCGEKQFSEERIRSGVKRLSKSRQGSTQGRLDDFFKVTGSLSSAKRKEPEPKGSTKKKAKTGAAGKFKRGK
Setting [1] is: double flap: 1:15-34 or 1:21-34 pairs with 2:1-14 (14 bp), 5' flap 20 nt, 3:1-16 pairs with 2:15-30 (16 bp), 3' flap 1 nt.
Where [2] appears, read: fork: 14 bp duplex (1:21-34 with 2:1-14), 5' arm 20 nt, 3' arm 16 nt.

B1: Double-flap substrate (dsDNA)
DNA 1: GATGTCAAGCAGTCCTAACTTTGAGGCAGAGTCC
DNA 2: GGACTCTGCCTCAAGACGGTAGTCAACGTG
DNA 3: CACGTTGACTACCGTCC
For B1, the binding result with hWH (Wuho, WDR4) (setting [1]) was “no binding”; with FEN1 (setting [1]) it was “binds”.

B2: Y-shape substrate (dsDNA)
DNA 1: GATGTCAAGCAGTCCTAACTTTGAGGCAGAGTCC
DNA 2: GGACTCTGCCTCAAGACGGTAGTCAACGTG
Regarding B2, the binding result is reported as “no binding” in the data set with hWH (Wuho, WDR4) (setting [2]) and “binds” in the data set with FEN1 (setting [2]).
